Molecular target: T1, Factor IXa (UniProt P00740 47-191; P00740 227-461)
T1 construct: also called FIXa
Test: functional Kd from intrinsic Xase FXa-generation assay; 0.25 nM FVIIIa, 0-20 nM FIXa, 200 nM FX, 20 uM phospholipids
Description: Kinetic analysis of FXa generation was performed by an intrinsic Xase assay, as described with modifications (Wilhelm, et al. (2021) Blood 137:2532-2543; Lollar, et al. (1989) Biochemistry 28 (2): 666-674). Activated FVIII (FVIIIa) was generated by incubating 25 nM FVIII with 100 nM thrombin for 30 seconds and thereafter quenched with hirudin (150 nM). […] At various time intervals (0.25-2 minutes), aliquots of the reaction mixture were quenched in 20 mM HEPES, 150 mM NaCl, 25 mM EDTA, 0.1% polyethylene glycol-8000, pH 7.4. The amount of FXa in each quenched sample was assessed using Spectrozyme® Xa by measuring absorbance at 405 nm in SpectraMax® 190 Microplate reader (Molecular Devices) and comparing the results to a prepared FXa standard curve.
TABLE 1 Biochemical Characterization of FVIII Proteins. Specific activity was determined by an aPTT based clotting assay measurement of clotting activity relative to protein concentration. Kinetic values were determined for FX activation by an intrinsic Xase assay using equimolar FVIIIa and FIXa (0.25 nM) 0.25 nM FVIIIa, 0.25 nM or 0-20 nM FIXa and 0-500 nM FX in the presence of 20 μM phospholipids. […] Data are represented as means ± SEM from at least two independent experiments.

T1 sequence (P00740 47-191 limits assumed, form in doubt, chain 1 of 2): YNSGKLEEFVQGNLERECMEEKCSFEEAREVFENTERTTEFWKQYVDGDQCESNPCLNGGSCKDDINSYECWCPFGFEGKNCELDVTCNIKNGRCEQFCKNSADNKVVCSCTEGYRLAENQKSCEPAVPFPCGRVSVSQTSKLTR
T1 sequence (P00740 227-461 limits assumed, form in doubt, chain 2 of 2): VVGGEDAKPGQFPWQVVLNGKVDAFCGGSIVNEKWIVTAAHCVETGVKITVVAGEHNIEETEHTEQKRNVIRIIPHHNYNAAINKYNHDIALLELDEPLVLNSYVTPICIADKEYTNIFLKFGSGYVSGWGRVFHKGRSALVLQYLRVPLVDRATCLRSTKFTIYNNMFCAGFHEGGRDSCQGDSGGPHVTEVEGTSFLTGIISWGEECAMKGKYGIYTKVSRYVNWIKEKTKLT

| Kd [nM] | Binder |
| --- | --- |
| 1.2 | FVIIIa-QQVV (thrombin-activated B-domain deleted FVIII R336Q/R562Q/D519V/E665V) (other, also called FVIII-QQVV; FVIII-QQ/VV) chain 1: ATRRYYLGAVELSWDYMQSDLGELPVDARFPPRVPKSFPFNTSVVYKKTLFVEFTDHLFNIAKPRPPWMGLLGPTIQAEVYDTVVITLKNMASHPVSLHAVGVSYWKASEGAEYDDQTSQREKEDDKVFPGGSHTYVWQVLKENGPMASDPLCLTYSYLSHVDLVKDLNSGLIGALLVCREGSLAKEKTQTLHKFILLFAVFDEGKSWHSETKNSLMQDRDAASARAWPKMHTVNGYVNRSLPGLIGCHRKSVYWHVIGMGTTPEVHSIFLEGHTFLVRNHRQASLEISPITFLTAQTLLMDLGQFLLFCHISSHQHDGMEAYVKVDSCPEEPQLQMKNNEEAEDYDDDLTDSEMDVVRFDDDNSPSFIQIR chain 2: SVAKKHPKTWVHYIAAEEEDWDYAPLVLAPDDRSYKSQYLNNGPQRIGRKYKKVRFMAYTDETFKTREAIQHESGILGPLLYGEVGDTLLIIFKNQASRPYNIYPHGITDVRPLYSRRLPKGVKHLKDFPILPGEIFKYKWTVTVEVGPTKSDPRCLTRYYSSFVNMERDLASGLIGPLLICYKESVDQQGNQIMSDKRNVILFSVFDENRSWYLTENIQRFLPNPAGVQLEDPEFQASNIMHSINGYVFDSLQLSVCLHEVAYWYILSIGAQTDFLSVFFSGYTFKHKMVYVDTLTLFPFSGETVFMSMENPGLWILGCHNSDFRNRGMTALLKVSSCDKNTGDYYEDSYEDISAYLLSKNNAIEPR chain 3: SFQKKTRHYFIAAVERLWDYGMSSSPHVLRNRAQSGSVPQFKKVVFQEFTDGSFTQPLYRGELNEHLGLLGPYIRAEVEDNIMVTFRNQASRPYSFYSSLISYEEDQRQGAEPRKNFVKPNETKTYFWKVQHHMAPTKDEFDCKAWAYFSDVDLEKDVHSGLIGPLLVCHTNTLNPAHGRQVTVQEFALFFTIFDETKSWYFTENMERNCRAPCNIQMEDPTFKENYRFHAINGYIMDTLPGLVMAQDQRIRWYLLSMGSNENIHSIHFSGHVFTVRKKEEYKMALYNLYPGVFETVEMLPSKAGIWRVECLIGEHLHAGMSTLFLVYSNKCQTPLGMASGHIRDFQITASGQYGQWAPKLARLHYSGSINAWSTKEPFSWIKVDLLAPMIIHGIKTQGARQKFSSLYISQFIIMYSLDGKKWQTYRGNSTGTLMVFFGNVDSSGIKHNIFNPPIIARYIRLHPTHYSIRSTLRMELMGCDLNSCSMPLGMESKAISDAQITASSYFTNMFATWSPSKARLHLQGRSNAWRPQVNNPKEWLQVDFQKTMKVTGVTTQGVKSLLTSMYVKEFLISSSQDGHQWTLFFQNGKVKVFQGNQDSFTPVVNSLDPPLLTRYLRIHPQSWVHQIALRMEVLGCEAQDLY |
| 1.6 | FVIIIa-VV (thrombin-activated B-domain deleted FVIII D519V/E665V) (other, also called FVIII-VV) chain 1: ATRRYYLGAVELSWDYMQSDLGELPVDARFPPRVPKSFPFNTSVVYKKTLFVEFTDHLFNIAKPRPPWMGLLGPTIQAEVYDTVVITLKNMASHPVSLHAVGVSYWKASEGAEYDDQTSQREKEDDKVFPGGSHTYVWQVLKENGPMASDPLCLTYSYLSHVDLVKDLNSGLIGALLVCREGSLAKEKTQTLHKFILLFAVFDEGKSWHSETKNSLMQDRDAASARAWPKMHTVNGYVNRSLPGLIGCHRKSVYWHVIGMGTTPEVHSIFLEGHTFLVRNHRQASLEISPITFLTAQTLLMDLGQFLLFCHISSHQHDGMEAYVKVDSCPEEPQLRMKNNEEAEDYDDDLTDSEMDVVRFDDDNSPSFIQIR chain 2: SVAKKHPKTWVHYIAAEEEDWDYAPLVLAPDDRSYKSQYLNNGPQRIGRKYKKVRFMAYTDETFKTREAIQHESGILGPLLYGEVGDTLLIIFKNQASRPYNIYPHGITDVRPLYSRRLPKGVKHLKDFPILPGEIFKYKWTVTVEVGPTKSDPRCLTRYYSSFVNMERDLASGLIGPLLICYKESVDQRGNQIMSDKRNVILFSVFDENRSWYLTENIQRFLPNPAGVQLEDPEFQASNIMHSINGYVFDSLQLSVCLHEVAYWYILSIGAQTDFLSVFFSGYTFKHKMVYVDTLTLFPFSGETVFMSMENPGLWILGCHNSDFRNRGMTALLKVSSCDKNTGDYYEDSYEDISAYLLSKNNAIEPR chain 3: SFQKKTRHYFIAAVERLWDYGMSSSPHVLRNRAQSGSVPQFKKVVFQEFTDGSFTQPLYRGELNEHLGLLGPYIRAEVEDNIMVTFRNQASRPYSFYSSLISYEEDQRQGAEPRKNFVKPNETKTYFWKVQHHMAPTKDEFDCKAWAYFSDVDLEKDVHSGLIGPLLVCHTNTLNPAHGRQVTVQEFALFFTIFDETKSWYFTENMERNCRAPCNIQMEDPTFKENYRFHAINGYIMDTLPGLVMAQDQRIRWYLLSMGSNENIHSIHFSGHVFTVRKKEEYKMALYNLYPGVFETVEMLPSKAGIWRVECLIGEHLHAGMSTLFLVYSNKCQTPLGMASGHIRDFQITASGQYGQWAPKLARLHYSGSINAWSTKEPFSWIKVDLLAPMIIHGIKTQGARQKFSSLYISQFIIMYSLDGKKWQTYRGNSTGTLMVFFGNVDSSGIKHNIFNPPIIARYIRLHPTHYSIRSTLRMELMGCDLNSCSMPLGMESKAISDAQITASSYFTNMFATWSPSKARLHLQGRSNAWRPQVNNPKEWLQVDFQKTMKVTGVTTQGVKSLLTSMYVKEFLISSSQDGHQWTLFFQNGKVKVFQGNQDSFTPVVNSLDPPLLTRYLRIHPQSWVHQIALRMEVLGCEAQDLY |

— patent publication US20250250322A1 (CHILDREN S HOSPITAL OF PHILADELPHIA, published 2025)
